The source of these data is patent publication US20100297662A1.

Experiment [1] addresses amylospheroid 42 (Homo sapiens (Human)) (UniProt P05067). In words: SPR, ratio of Kd values (40Aβ against 42ASPD).
Experiment [2] has the same target. In words: SPR, ratio of Kd values (42 fibril against 42ASPD).
For experiment [3], the target named is Aβ fibril (42 fibril) prepared from 42Aβ (Homo sapiens (Human)) (UniProt P05067). The experiment can be described thus: SPR (BIAcore), antigen on CM5 chip, antibody in solution.
In experiment [4] the target is amylospheroid 42 (Homo sapiens (Human)) (UniProt P05067). The experiment is described as above.
Experiment [5] addresses monomeric amyloid β40-protein (Aβ1-40). Described as above.
Experiment [6] addresses Aβ fibril prepared from amyloid β40 (Homo sapiens (Human)) (UniProt P05067). The experiment can be described thus: SPR (BIAcore 3000), antigen on CM5 chip, antibody in solution.
Experiment [7] has as its target amylospheroid 42 (Homo sapiens (Human)) (UniProt P05067). The description is as above.
For experiment [8], the target named is monomeric amyloid β40-protein (Aβ1-40). Described as above.
Experiment [9] deals with monomeric amyloid β42-protein (Aβ1-42). The experiment is described as above.
For experiment [10], the target named is ASPD (amylospheroid; Aβ species not stated). In words: competitive ELISA: antibody pre-reacted with ASPD in solution, then ASPD solid-phase plate.
For experiment [11], the target named is commercially available amyloid precursor protein sAPPα (Sigma) (UniProt P05067). In words: competitive ELISA: antibody pre-reacted with sAPPα in solution, then ASPD solid-phase plate.

monomeric amyloid β40-protein (Aβ1-40), sequence (peptide, as listed by the source): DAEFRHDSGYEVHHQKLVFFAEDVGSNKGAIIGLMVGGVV
monomeric amyloid β42-protein (Aβ1-42), sequence (peptide, as listed by the source): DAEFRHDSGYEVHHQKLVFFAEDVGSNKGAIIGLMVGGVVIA

Take “anti-Aβ antibody 3D6 (US 20030165496 A1), produced as a mouse IgG2b/κ molecule”: the fold higher affinity with ASPD than with amyloid β-monomer in experiment [1] is 34 times. In experiment [2], the fold higher affinity with ASPD than with amyloid fibril amounted to 2 times. The Kd in experiment [3] stood at 0.231 nM; in experiment [4], 0.115 nM; in experiment [5], 3.93 nM.

On to “commercially available anti-amyloid β antibody 6E10 (Senetek)”, for which the Kd came to 1.33 nM in experiment [6], 18.3 nM in experiment [7], 37.3 nM in [8] and 17.2 nM in experiment [9]. The IC50 in [10] stood at 3.7 nM; in [11], 16.1 nM.
